From PMC4300183, “Cloning and Characterization of a Weissella confusa Dextransucrase and Its Application in High Fibre Baking” (PLoS ONE, 2015) come the findings set out here.

Substrate in the data set: OC[C@H]1O[C@@](CO)(O[C@H]2O[C@H](CO)[C@@H](O)[C@H](O)[C@H]2O)[C@@H](O)[C@@H]1O
The data set can be described thus: purified protein. To be noted: 20 mM Na-acetate pH 5.4, 2 mM CaCl2, 35 °C, sucrose 3-146 mM, labelled compound. The data set is classed as biochemical, Weissella confusa.

B1: WcE392-rDSR (Wc392-rDSR; recombinant WcE392-DSR dextransucrase) (Weissella confusa) (protein)
chain: DQLATQPAESAEVTQHETPTDSQAPDSVTSLSDTKETVQSSAASVDSSHVATSSASETTSSASETSTKTSSAASSVASSATMLSATSSASSSVDATITDGYHDEGGNWVYYRDGKKLTGRQLIDTFNVYFDEDGHQVKGDWRETDGKRAYYDGQEGRALTETQVVDGAVRGFDADGYEITNGFGQTSNQDTYYFDNDGNHVTGIQVIDGKTYNFDDQGRMLKGIATEVNGTMMYFDDQTGVATPTSDPKFNPELEPVPNQNAQHNAAHGTTPEDFDNMAGYLTADTWYRPNDILDNGETWRESTPTEYRPLIETWWPTKQTQADYVNYMNDALQVSTKTVSAADSEATLTAAADAIQAAIERQITVKQSTDWLRELMAAFVVTQPQWNKSSEDENDDHLQGGALSFENNPDTDANSDYRLMNRTPTNQTGERLYHIDDSLGGYELLLANDVDNSNPQVQAEQLNWLYYLMNFGSITANDPDANFDAIRVDAVDNVDADLLQLAAQYFRDAYGMATNDATSNQHLSILEDWSHNDPAYMNEHGNDQLTMDDYMHTQLIWSLTKSDAQRGKMDRFLDFYLTNRANDNTENEAQPSYSFVRAHDSEVQTVIAEIVTKLHPEAGNGLMPTQAQMDEAFKIYNADQKKAVKEYTHYNMPSAYAMLLTNKDVIPRVYYGDLYTDDGQYMATKSPYFDAIDAMLKARTKYVAGGQTMAVDKNDVLTSVRFGKGAMTASDAGTAETRTEGVGLIISNNHDLKMADSDQVVLHMGIAHANQAFRAVVMTTATGLAIYNDDNAPIRYTDANGDLIFTNADVYGVLNPQVSGFLAMWVPVGASATQDARTAASTEATTDGSAYHSNAALDSQVIFEGFSNFQAMPTTHDEYTNVVLAKHTDLLTDWSVTSVQLAPQYRSSTDGTFLDSIIQNGYAFTDRYDLGFGTPTKYGDDNDLRDVIKSLHANGIQVMADFVPDQLYALPGKELVQVTRTNNMGEPDKNSEIQHLMYVTSTRGGGEYQKQYGGEFLAKLRELYPDLFTTDQISTGKPIDDSVKIKEWSAKYLNGTAIQGRGAGYVLRDAGNNSYYRVTANTGNTNLPNQMLGKPVLTGFQKLADGYHFETLSGSAAKDAFIKDDNGELYYFDNNGVMATGEQKVRGGQYFFLPNGIALTDAFIETEDGHMRYYDKNGQLVVNQYVTDHQANAFRVDADGNVIRSQALTVDGNEQYFGSNGVQAKAQMVRDENGQAHYYAAGNGNMIKNQFILDTDGHWLYADQNGNLARGMTTLNQGTLYFDDQNHQVKDDFVYDADGVHYFNGTNGAEVKNDYAYHNGKWYYFDENGRMVTGLQTINGELRYFGADGAQLKGGQATNQKTNQTYVFDETNGSGKLVTI
notes: secreted by Lactococcus lactis NZ9800 (pNZ8037), Ni-NTA purified; predicted mature 1381 residues, 152 kDa (~160 kDa on SDS-PAGE); precursor printed as 1432 residues, but 4272 bp ORF implies 1423
In general, Km refers to the substrate concentration at which the rate is half of its maximum. By Vmax is commonly meant the top rate of the reaction or transport when substrate is in excess. As a reminder, the kcat is the maximal rate divided by the concentration of active sites. As a reminder, the kcat/Km is the second-order rate constant that governs catalysis at low substrate concentration. Take B1: the Km turned out to be 14.7 ± 2.3 mM, the Vmax amounted to 8.2 µmol/min/mg, the kcat is 23.2 ± 1.1 s⁻¹ and the kcat/Km was 1600 ± 300 M⁻¹ s⁻¹.
